Source: article PMC8106667 (Molecular cell, 2021)

B1: GST-CDC6 wild type, full length (natural protein, human, UniProt Q99741 1-560, looked up)
chain: MPQTRSQAQATISFPKRKLSRALNKAKNSSDAKLEPTNVQTVTCSPRVKALPLSPRKRLGDDNLCNTPHLPPCSPPKQGKKENGPPHSHTLKGRRLVFDNQLTIKSPSKRELAKVHQNKILSSVRKSQEITTNSEQRCPLKKESACVRLFKQEGTCYQQAKLVLNTAVPDRLPAREREMDVIRNFLREHICGKKAGSLYLSGAPGTGKTACLSRILQDLKKELKGFKTIMLNCMSLRTAQAVFPAIAQEICQEEVSRPAGKDMMRKLEKHMTAEKGPMIVLVLDEMDQLDSKGQDVLYTLFEWPWLSNSHLVLIGIANTLDLTDRILPRLQAREKCKPQLLNFPPYTRNQIVTILQDRLNQVSRDQVLDNAAVQFCARKVSAVSGDVRKALDVCRRAIEIVESDVKSQTILKPLSECKSPSEPLIPKRVGLIHISQVISEVDGNRMTLSQEGAQDSFPLQQKILVCSLMLLIRQLKIKEVTLGKLYEAYSKVCRKQQVAAVDQSECLSLSGLLEARGILGLKRNKETRLTKVFFKIEEKEIEHALKDKALIGNILATGLP
B2: ORC1-180-240-HIS6 wild type (domain or fragment, human, UniProt Q13415 180-240, looked up)
chain: QESAAKCQKPVRAKSKSAESPSWTPAEHVAKRIESRHSASKSRQTPTHPLTPRARKRLELG

Key:
Assay in all cases: pull-down
[1] = biological target: T1, MBP-ORC1 R105Q (human, UniProt Q13415 1-861, R105Q)
T1 sequence (looked up): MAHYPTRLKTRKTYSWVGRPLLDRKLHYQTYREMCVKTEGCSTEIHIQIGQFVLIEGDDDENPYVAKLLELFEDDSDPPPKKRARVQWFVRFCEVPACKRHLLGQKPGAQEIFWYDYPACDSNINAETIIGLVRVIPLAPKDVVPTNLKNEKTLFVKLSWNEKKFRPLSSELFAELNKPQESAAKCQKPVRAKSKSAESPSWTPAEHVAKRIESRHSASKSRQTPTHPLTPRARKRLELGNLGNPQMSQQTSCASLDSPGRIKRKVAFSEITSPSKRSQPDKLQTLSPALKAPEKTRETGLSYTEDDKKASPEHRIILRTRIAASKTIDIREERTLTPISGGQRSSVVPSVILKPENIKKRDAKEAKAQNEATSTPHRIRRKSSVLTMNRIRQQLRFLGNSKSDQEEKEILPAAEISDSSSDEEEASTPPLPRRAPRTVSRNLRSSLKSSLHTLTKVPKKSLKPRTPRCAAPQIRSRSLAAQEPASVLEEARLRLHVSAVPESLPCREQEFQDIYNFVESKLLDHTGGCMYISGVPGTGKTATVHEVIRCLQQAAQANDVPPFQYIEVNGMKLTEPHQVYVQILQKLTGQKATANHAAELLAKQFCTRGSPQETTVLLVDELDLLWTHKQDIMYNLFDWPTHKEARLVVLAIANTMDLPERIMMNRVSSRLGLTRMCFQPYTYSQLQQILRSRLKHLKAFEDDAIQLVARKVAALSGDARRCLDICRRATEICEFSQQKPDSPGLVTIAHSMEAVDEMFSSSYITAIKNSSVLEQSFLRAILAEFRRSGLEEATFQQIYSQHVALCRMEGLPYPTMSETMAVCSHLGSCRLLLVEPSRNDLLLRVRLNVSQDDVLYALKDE

[2] = biological target: T2, MBP-ORC1-PSM123 (Phosphorylation Site Mutant, S258A, S273A and T375A) (human, UniProt Q13415 1-861, S258A | S273A | T375A)
T2 sequence (looked up): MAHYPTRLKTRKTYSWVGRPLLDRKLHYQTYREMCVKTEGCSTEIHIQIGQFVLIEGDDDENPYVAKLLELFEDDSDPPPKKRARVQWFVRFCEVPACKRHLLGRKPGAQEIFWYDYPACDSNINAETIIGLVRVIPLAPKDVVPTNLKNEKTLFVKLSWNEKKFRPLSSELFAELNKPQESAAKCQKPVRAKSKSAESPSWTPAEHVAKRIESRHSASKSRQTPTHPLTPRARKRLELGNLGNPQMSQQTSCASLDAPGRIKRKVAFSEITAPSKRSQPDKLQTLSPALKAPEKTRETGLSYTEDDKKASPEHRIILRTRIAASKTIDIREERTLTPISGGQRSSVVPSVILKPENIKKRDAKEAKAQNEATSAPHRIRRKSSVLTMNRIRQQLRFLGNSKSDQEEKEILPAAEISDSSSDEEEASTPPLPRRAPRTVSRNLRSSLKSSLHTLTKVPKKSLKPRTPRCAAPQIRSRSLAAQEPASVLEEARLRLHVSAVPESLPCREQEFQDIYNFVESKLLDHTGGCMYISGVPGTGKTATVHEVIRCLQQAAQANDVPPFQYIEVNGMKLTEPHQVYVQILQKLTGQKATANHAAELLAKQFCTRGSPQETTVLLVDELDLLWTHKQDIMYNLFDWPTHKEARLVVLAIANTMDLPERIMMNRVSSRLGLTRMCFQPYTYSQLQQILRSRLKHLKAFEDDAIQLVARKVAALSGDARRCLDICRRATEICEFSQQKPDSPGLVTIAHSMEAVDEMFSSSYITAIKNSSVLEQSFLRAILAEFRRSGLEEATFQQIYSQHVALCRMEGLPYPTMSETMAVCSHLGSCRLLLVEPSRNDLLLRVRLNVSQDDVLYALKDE

[3] = biological target: T3, MBP-ORC1 wild type, full length (human, UniProt Q13415 1-861)
T3 sequence (looked up): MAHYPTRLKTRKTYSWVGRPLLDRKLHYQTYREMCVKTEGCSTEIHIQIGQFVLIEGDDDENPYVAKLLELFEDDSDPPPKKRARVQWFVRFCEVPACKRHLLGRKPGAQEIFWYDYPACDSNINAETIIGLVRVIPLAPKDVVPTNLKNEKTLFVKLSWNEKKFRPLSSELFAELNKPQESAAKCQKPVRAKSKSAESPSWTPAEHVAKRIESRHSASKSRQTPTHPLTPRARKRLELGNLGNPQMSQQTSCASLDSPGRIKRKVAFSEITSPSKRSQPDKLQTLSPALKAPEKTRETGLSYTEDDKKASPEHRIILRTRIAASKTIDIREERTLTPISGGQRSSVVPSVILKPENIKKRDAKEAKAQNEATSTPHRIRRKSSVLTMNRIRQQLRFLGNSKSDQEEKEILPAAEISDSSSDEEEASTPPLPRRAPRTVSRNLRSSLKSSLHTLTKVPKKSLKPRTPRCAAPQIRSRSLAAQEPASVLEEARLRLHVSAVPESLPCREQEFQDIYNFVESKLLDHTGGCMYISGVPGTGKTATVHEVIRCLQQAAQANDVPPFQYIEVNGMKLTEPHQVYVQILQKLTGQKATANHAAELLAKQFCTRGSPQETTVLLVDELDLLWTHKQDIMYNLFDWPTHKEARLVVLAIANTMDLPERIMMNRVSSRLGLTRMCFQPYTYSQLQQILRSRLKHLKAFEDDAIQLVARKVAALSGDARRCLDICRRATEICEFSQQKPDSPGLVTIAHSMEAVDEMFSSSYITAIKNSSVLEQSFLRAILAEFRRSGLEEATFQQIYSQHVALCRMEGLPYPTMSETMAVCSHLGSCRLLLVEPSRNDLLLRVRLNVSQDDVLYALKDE

[4] = biological target: T4, MBP-ORC2 (human, UniProt Q13416 1-577)
T4 sequence (looked up): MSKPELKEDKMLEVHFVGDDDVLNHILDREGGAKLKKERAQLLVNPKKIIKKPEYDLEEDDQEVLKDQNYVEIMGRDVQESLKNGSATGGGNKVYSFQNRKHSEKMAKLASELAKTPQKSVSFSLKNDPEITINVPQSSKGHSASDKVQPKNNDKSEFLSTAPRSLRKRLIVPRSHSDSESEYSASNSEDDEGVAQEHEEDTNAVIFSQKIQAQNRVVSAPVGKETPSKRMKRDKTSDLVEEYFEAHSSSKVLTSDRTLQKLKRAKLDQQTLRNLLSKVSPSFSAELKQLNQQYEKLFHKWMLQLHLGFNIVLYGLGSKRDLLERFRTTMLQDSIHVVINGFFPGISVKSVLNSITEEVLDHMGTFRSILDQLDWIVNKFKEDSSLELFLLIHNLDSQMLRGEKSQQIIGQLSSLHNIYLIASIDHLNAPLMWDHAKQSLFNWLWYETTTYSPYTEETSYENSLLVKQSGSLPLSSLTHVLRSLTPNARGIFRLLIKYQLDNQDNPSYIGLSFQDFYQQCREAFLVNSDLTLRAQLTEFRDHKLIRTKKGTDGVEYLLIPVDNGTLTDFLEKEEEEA

[5] = biological target: T5, MBP-ORC1-230-400 wild type (human, UniProt Q13415 230-400)
T5 sequence (looked up): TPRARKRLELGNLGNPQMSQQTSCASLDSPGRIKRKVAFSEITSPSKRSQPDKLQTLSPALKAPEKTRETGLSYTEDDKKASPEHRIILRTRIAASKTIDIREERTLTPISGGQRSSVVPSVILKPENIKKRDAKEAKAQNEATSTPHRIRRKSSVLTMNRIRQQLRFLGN

[6] = biological target: T6, MBP-ORC1-230-400 A-A (Cy motif mutant) (human, UniProt Q13415 230-400, K235A | L237A)
T6 sequence (looked up): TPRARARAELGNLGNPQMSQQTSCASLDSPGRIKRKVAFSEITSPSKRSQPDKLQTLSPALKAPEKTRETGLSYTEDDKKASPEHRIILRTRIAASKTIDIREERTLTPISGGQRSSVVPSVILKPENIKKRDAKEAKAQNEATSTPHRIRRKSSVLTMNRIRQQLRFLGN

[7] = biological target: B1
[8] = biological target: B2

B1: binds [1]; binds [2]; binds [3]. B1: binds [4].

B2: binds [5]; binds [6]; binds [7].

B3: MBP-ORC1-350-400 wild type (domain or fragment, human, UniProt Q13415 350-400, looked up)
chain: SVILKPENIKKRDAKEAKAQNEATSTPHRIRRKSSVLTMNRIRQQLRFLGN
B3: binds [8].
